Laboratory results published in patent US20200399375A1 (SUZHOU SUNCADIA BIOPHARMACEUTICALS, published 2020).

What was measured:
[1] = target: T1, PD-L1 Fc fusion protein: PD-L1 (ECD)-Fc (human IgG1) (human); assay: blocking ELISA, PD-L1(ECD)-Fc coated, competitor biotin-PD-1-Fc
T1 construct: Coated on the plate in Tests 1 to 3; also called huPD-L1-Fc; VKL-PD-L1(ECD)-Fc(human IgG1)
Experimental: The dilution of biotin (Dojindo Chemical, LK03: 3 samples) and avidin (Sigma, S2438-250UG) was 6% BSA (diluted with PBS containing 0.1% Tween20), and PBS was used as coating solution. Microtitration plates were directly coated with 1 μg/ml ([…]) of PD-L1(ECD)-Fc(SEQ ID NO: 4) and incubated at 4° C. overnight. The plate was washed three times and was blocked for 2h at 37° C. with 3% BSA(diluted with PBS containing 0.1% Tween20). The plate was washed three times and 50 μl/well of cell supernatant was added to each well. Then 50 μl/well of bio-PD-1-Fc (biotin-labeled PD-1-Fc, SEQ ID NO: 5, 2 μg/ml, PD-1-FC was labeled according to the method of Dojindo Chemical Kits Biotin Labeling Kit-NH2, LK03: 3 samples) was added to each well, well-mixed by vortex, and incubated at 37° C. for 1 h. The plates were washed 6 times, followed by addition of 50 μl/well Streptavidin-Peroxidase Polymer (S2438-250UG, Sigma, which was diluted at a ratio of 1:400), and incubated on shaker for 50 min at room temperature. The plate was washed 6 times, and then I00 μl/well of TMB was added, and incubated for 5-10 min at 37° C. Then the reaction was terminated with addition of 100 μl/well of 1M H2SO₄. The absorbance value was read on microplate reader (BMG Labtech, NOVOStar) at 450 nm, and the IC₅₀ value for blocking the binding of PD-1 antibody to ligand PD-L1 was calculated.

[2] = target: T1, PD-L1 Fc fusion protein: PD-L1 (ECD)-Fc …; assay: blocking ELISA, PD-L1(ECD)-Fc coated, competitor biotin-human B7.1
[3] = target: T2, human PD-L1 antigen (huPD-L1-his, Sino biological, 10084-H08H-200) (human, UniProt Q9NZQ7 19-239); assay: Biacore X100, antibody captured by anti-human antibody on CM5, antigen in flow, 1:1 Langmuir
T2 construct: Bought protein; also called human PD-L1-his; not shown: His tag

[4] = target: T3, cynomolgus PD-L1 antigen (Cyno PD-L-his, Sino 90251-C08H-100) (cynomolgus, UniProt G7PSE7 19-239); assay: as above
T3 construct: Bought protein; also called CynoPD-L1-his; not shown: His tag

[5] = target: T1, PD-L1 Fc fusion protein: PD-L1 (ECD)-Fc …; assay: hybridoma screening, binding ELISA on coated PD-L1(ECD)-Fc (Test 1)
Experimental: On day 10-11 after fusion, an ELISA assay was performed on PD-L1 binding according to the density of the growing cells (see Test 1). For the positive cells detected in the ELISA assay (Test 1), blockade in PD-L1/PD-1 binding was detected via ELISA analysis (see Test 2). Medium in the positive wells was changed and the positive cells were expanded to a 24-well plate depending on cell density. After re-testing, the cells transferred into the 24-well plate were used for breed conservation and first sub-cloning. The positive cells during the first sub-clone screening (see Test 1) were used for breed conservation and subjected to a second sub-cloning. The positive cells during the second sub-cloning were (see Test 1) used for breed conservation and protein expression. Hybridoma cells having blocking effect on PD-L1 and PD-1 binding (see Test 2) were obtained by multiple cell fusions.
Microtitration plates were directly coated with 1 μg/ml ([…]) of PD-L1(ECD)-Fc(SEQ ID NO: 4) and incubated at 4° C. overnight. Then the plates were blocked with 150 μl/well of PBS containing 5% Skim Milk(BD, 232100) and incubated at 4° C. overnight. […] The reaction was stopped by the addition of 50 μl/well of 1M H₂SO₄ to each well and the OD value was read on an ELISA microplate reader (BMG Labtech, NOVOStar) at a wavelength of 450 nm.

[6] = target: T2, human PD-L1 antigen (huPD-L1-his, Sino …); assay: affinity measurement; method and antigen not named in the sentence (PD-L1)
[7] = target: T2, human PD-L1 antigen (huPD-L1-his, Sino …); assay: BIACORE (Test 4)
Description: The anti-human capture antibody was covalently linked to the CM5 biochip (GE, BR-1000-12) according to the method described in the anti-human trapping kit (GE, BR-1008-39) instructions for affinity capturing the PD-L1 antibody of the present invention. Then, a series of concentrations of human PD-L1 antigen (Sino biological, 0084-H08H-200) were flowed through the surface of the biochip, and the reaction signal was detected in real time using a Biacore instrument (GE, BiacoreX100) to obtain the association and dissociation curves. Finally, the affinity values were obtained by fitting. After each cycle of dissociation was finished in the experiment, the biochip was washed and regenerated with regeneration solution in the anti-human capture kit (GE). The data obtained was analyzed by GE's BIA evaluation software using a 1:1(Langmuir) binding model. Ka (kon), kd (koff) and KD values were determined by the assay. The affinity of hybridoma antibodies and humanized antibodies has been summarized in other examples.

B1: HRP00052: 24D5(GF) IgG4 (AA) (S228P) (antibody, V domains shown)
VH: QVQLVQSGAEVKKPGASVKVSCKASGYTFTSYWMHWVRQAPGQGLEWMGRIGPNSGFTSYNEKFKNRVTMTRDTSTSTVYMELSSLRSEDTAVYYCARGGSSYDYFDYWGQGTTVTVSS
VL: DIVLTQSPASLAVSPGQRATITCRASESVSIHGTHLMHWYQQKPGQPPKLLIYAASNLESGVPARFSGSGSGTDFTLTINPVEAEDTANYYCQQSFEDPLTFGQGTKLEIKR
notes: kappa light chain; also called 24D5 29H1 GF; humanized antibody 24D5
Which IC50 [1] does the source give for B1 here?
Its IC50 is 0.114 µg/mL.

What about the IC50 [2] of the same binder?
The IC50 was 0.0696 µg/mL.

What about the Kd [3] of the same binder?
Its Kd is 0.057 nM.

What about the koff [3] of the same binder?
The koff was 0.000101 s⁻¹.

What about the kon [3] of the same binder?
The kon was 1.77e+06 M⁻¹ s⁻¹.

What about the Kd [4] of the same binder?
The Kd was 0.0579 nM.

And the koff [4]?
Its koff is 0.000106 s⁻¹.

And the kon [4]?
Its kon is 1.84e+06 M⁻¹ s⁻¹.

B2: HRP00049: 9-2(H2/L10) IgG4 (AA)(S228P) (antibody, V domains shown)
VH: QVQLQESGPGLVKPSQTLSLTCTVSGGSISNDYWTWIRQHPGKGLEYIGYISYTGSTYYNPSLKSRVTISRDTSKNQFSLKLSSVTAADTAVYYCARSGGWLAPFDYWGRGTLVTVSS
VL: DIVMTQSPDSLAVSLGERATINCKSSQSLFYHSNQKHSLAWYQQKPGQPPKLLIYGASTRESGVPDRFSGSGSGTDFTLTISSLQAEDVAVYYCQQYYGYPYTFGGGTKVEIKR
notes: kappa light chain; also called humanized antibody 9-2
What does the source list for B2?
IC50 [1]: 0.174 µg/mL; IC50 [2]: 0.113 µg/mL; Kd [3]: 0.17 nM; koff [3]: 0.000162 s⁻¹; kon [3]: 952000 M⁻¹ s⁻¹; Kd [4]: 0.172 nM; koff [4]: 0.000167 s⁻¹; kon [4]: 974000 M⁻¹ s⁻¹

B3: murine antibody of hybridoma clone 9-2 (antibody, V domains shown)
VH: EVQLQESGPGLAKPSQTLSLTCSVAGYSITNDYWNWIRKFPGNKLEYMGYISYTGSTYYNPSLKSRLSITRDTSKNQYYLQLNSVTAEDTAIYYCARSGGWLAPFDYWGRGTTLTVSS
VL: DIVMSQSPSSLVVSVGEKVIMSCKSSQSLFYRSNQKNSLAWYQQKPGQSPKLLIYGASTRESGVPDRFTGSGSGTDFTVTISSVKAEDLAVYYCQQYYGYPYTFGGGTKLEIK
notes: Mouse hybridoma antibody; also called hybridoma antibody 9-2; murine antibody 9-2
Does B3 bind [5]?
Result: binds

B4: chimeric antibody of 24D5 with a back-mutation from serine to cysteine at position 96 (antibody, V domains shown)
VH: QVQLQQPGAELVKPGASVKLSCKASGYTFTSYWMHWVQQRPGQGLEWIGRIHPNSGGTSYNEKFKNRATLTVDKSSSTAYMQFSSLTSEDSAVYYCARGGSSYDYFDYWGQGTTLTVSS
VL: DIVLTQSPASLAVSLGQRATISCRASESVSIHGTHLMHWYQQKPGQPPKLLIYAASNLESGVPARFSGSGSETDFTLNIHPVEEEDATTYFCQQSFEDPLTFGAGTKLELK
notes: it is put on the VH because the printed VH has S at 96 and C at 22 (the disulfide partner named); also called 24D5 chimeric S96C
Does B4 bind [6]?
Result: binds

B5: 9-2 chimeric antibody (antibody, V domains shown)
VH: B3 VH
VL: B3 VL
notes: also called the chimeric antibody (of 9-2)
Does B5 bind [7]?
Result: binds
